Target: WI/05 HA1 monomer (Influenza A virus …, UniProt Q0PED2, strain)
Test: ELISA
Settings: both partners purified

B1: mAb #1664 (antibody, V domains shown)
VH: EVQVMQSGAEARMTGATVKISCKASGYTFSDYFLHWVKQAPGKGLEWMGLVDVDNGEVRYAEKFQGRVTITADTSTETAYLEMTTVTSGDTAVYYCASTTPRGGNPSVYNYFFVDVWGKGTTVTVSS
VL: QPVLTQSSSASASLGSSVKLTCTLSSGHDNYIIAWHQQQPGKAPRYLMQVGAGGTYNKGSGVPHRFSGSSSGADRYLTISNLQSDDEADYYCETWDSKTVFGGGTTLTVL
notes: also called private mAb; H3-specific mAb; source: HEK 293F cells, transfected (GenScript), conditioned media; purified
binding result: no binding (tested: 20 μg/mL)

Reference: article PMC7899375 (PLoS ONE, 2021)
